{
  "source": "patent US20210388087A1",
  "about": "(Chugai, published 2021)",
  "data": [
    {"molecular_target": "T1, Human CD3eg linker (human)", "T1 construct": "Single chain: epsilon and gamma subunits of human CD3 joined by a 29-mer linker, Flag-tag at the C-terminus; also called recombinant human CD3", "T1 chain": "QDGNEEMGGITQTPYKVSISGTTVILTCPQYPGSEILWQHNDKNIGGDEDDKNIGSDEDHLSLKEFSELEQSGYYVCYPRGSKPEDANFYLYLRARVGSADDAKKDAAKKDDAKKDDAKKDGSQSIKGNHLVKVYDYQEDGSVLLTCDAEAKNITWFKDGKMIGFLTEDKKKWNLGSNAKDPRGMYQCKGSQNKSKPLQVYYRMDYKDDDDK", "assay": "Biacore SPR, vs template H183/L072", "units": {"fold change of affinity": "fold"}, "values": [
      {"binder": "H183/L072 VH G52cI (antibody, name in Kabat numbering, V domains shown) VH: QVQLVESGGGLVQPGRSLRLSCAASGFTFSNAWMHWVRQAPGKGLEWVAQIKDKINAYAAYYAPSVKGRFTISRDDSKNSIYLQMNSLKTEDTAVYYCHYVHYASASTVLPAFGVDAWGQGTTVTVSS VL: DIVMTQSPLSLPVTPGEPASISCQASQELVHMNRNTYLHWYQQKPGQAPRLLIYKVSNRFPGVPDRFSGSGSGTDFTLKISRVEAEDVGVYYCAQGTSVPFTFGQGTKLEIK", "fold change of affinity": 1.1},
      {"binder": "H183/L072 VH G52cV (antibody, name in Kabat numbering, V domains shown) VH: QVQLVESGGGLVQPGRSLRLSCAASGFTFSNAWMHWVRQAPGKGLEWVAQIKDKVNAYAAYYAPSVKGRFTISRDDSKNSIYLQMNSLKTEDTAVYYCHYVHYASASTVLPAFGVDAWGQGTTVTVSS VL: DIVMTQSPLSLPVTPGEPASISCQASQELVHMNRNTYLHWYQQKPGQAPRLLIYKVSNRFPGVPDRFSGSGSGTDFTLKISRVEAEDVGVYYCAQGTSVPFTFGQGTKLEIK", "fold change of affinity": 1.5},
      {"binder": "H183/L072 VH G100hA (antibody, name in Kabat numbering, V domains shown) VH: QVQLVESGGGLVQPGRSLRLSCAASGFTFSNAWMHWVRQAPGKGLEWVAQIKDKGNAYAAYYAPSVKGRFTISRDDSKNSIYLQMNSLKTEDTAVYYCHYVHYASASTVLPAFAVDAWGQGTTVTVSS VL: DIVMTQSPLSLPVTPGEPASISCQASQELVHMNRNTYLHWYQQKPGQAPRLLIYKVSNRFPGVPDRFSGSGSGTDFTLKISRVEAEDVGVYYCAQGTSVPFTFGQGTKLEIK", "fold change of affinity": 4.8},
      {"binder": "H183/L072 VH G65A (antibody, name in Kabat numbering, V domains shown) VH: QVQLVESGGGLVQPGRSLRLSCAASGFTFSNAWMHWVRQAPGKGLEWVAQIKDKGNAYAAYYAPSVKARFTISRDDSKNSIYLQMNSLKTEDTAVYYCHYVHYASASTVLPAFGVDAWGQGTTVTVSS VL: DIVMTQSPLSLPVTPGEPASISCQASQELVHMNRNTYLHWYQQKPGQAPRLLIYKVSNRFPGVPDRFSGSGSGTDFTLKISRVEAEDVGVYYCAQGTSVPFTFGQGTKLEIK", "fold change of affinity": 1.1},
      {"binder": "H183/L072 VH G52cR (antibody, name in Kabat numbering, V domains shown) VH: QVQLVESGGGLVQPGRSLRLSCAASGFTFSNAWMHWVRQAPGKGLEWVAQIKDKRNAYAAYYAPSVKGRFTISRDDSKNSIYLQMNSLKTEDTAVYYCHYVHYASASTVLPAFGVDAWGQGTTVTVSS VL: DIVMTQSPLSLPVTPGEPASISCQASQELVHMNRNTYLHWYQQKPGQAPRLLIYKVSNRFPGVPDRFSGSGSGTDFTLKISRVEAEDVGVYYCAQGTSVPFTFGQGTKLEIK", "fold change of affinity": 1.4},
      {"binder": "H183/L072 VH G52cM (antibody, name in Kabat numbering, V domains shown) VH: QVQLVESGGGLVQPGRSLRLSCAASGFTFSNAWMHWVRQAPGKGLEWVAQIKDKMNAYAAYYAPSVKGRFTISRDDSKNSIYLQMNSLKTEDTAVYYCHYVHYASASTVLPAFGVDAWGQGTTVTVSS VL: DIVMTQSPLSLPVTPGEPASISCQASQELVHMNRNTYLHWYQQKPGQAPRLLIYKVSNRFPGVPDRFSGSGSGTDFTLKISRVEAEDVGVYYCAQGTSVPFTFGQGTKLEIK", "fold change of affinity": 1.4},
      {"binder": "H183/L072 VH G65M (antibody, name in Kabat numbering, V domains shown) VH: QVQLVESGGGLVQPGRSLRLSCAASGFTFSNAWMHWVRQAPGKGLEWVAQIKDKGNAYAAYYAPSVKMRFTISRDDSKNSIYLQMNSLKTEDTAVYYCHYVHYASASTVLPAFGVDAWGQGTTVTVSS VL: DIVMTQSPLSLPVTPGEPASISCQASQELVHMNRNTYLHWYQQKPGQAPRLLIYKVSNRFPGVPDRFSGSGSGTDFTLKISRVEAEDVGVYYCAQGTSVPFTFGQGTKLEIK", "fold change of affinity": 0.9},
      {"binder": "H183/L072 VH G52cW (antibody, name in Kabat numbering, V domains shown) VH: QVQLVESGGGLVQPGRSLRLSCAASGFTFSNAWMHWVRQAPGKGLEWVAQIKDKWNAYAAYYAPSVKGRFTISRDDSKNSIYLQMNSLKTEDTAVYYCHYVHYASASTVLPAFGVDAWGQGTTVTVSS VL: DIVMTQSPLSLPVTPGEPASISCQASQELVHMNRNTYLHWYQQKPGQAPRLLIYKVSNRFPGVPDRFSGSGSGTDFTLKISRVEAEDVGVYYCAQGTSVPFTFGQGTKLEIK", "fold change of affinity": 1.5},
      {"binder": "H183/L072 VH G65I (antibody, name in Kabat numbering, V domains shown) VH: QVQLVESGGGLVQPGRSLRLSCAASGFTFSNAWMHWVRQAPGKGLEWVAQIKDKGNAYAAYYAPSVKIRFTISRDDSKNSIYLQMNSLKTEDTAVYYCHYVHYASASTVLPAFGVDAWGQGTTVTVSS VL: DIVMTQSPLSLPVTPGEPASISCQASQELVHMNRNTYLHWYQQKPGQAPRLLIYKVSNRFPGVPDRFSGSGSGTDFTLKISRVEAEDVGVYYCAQGTSVPFTFGQGTKLEIK", "fold change of affinity": 1},
      {"binder": "H183/L072 VH G52cQ (antibody, name in Kabat numbering, V domains shown) VH: QVQLVESGGGLVQPGRSLRLSCAASGFTFSNAWMHWVRQAPGKGLEWVAQIKDKQNAYAAYYAPSVKGRFTISRDDSKNSIYLQMNSLKTEDTAVYYCHYVHYASASTVLPAFGVDAWGQGTTVTVSS VL: DIVMTQSPLSLPVTPGEPASISCQASQELVHMNRNTYLHWYQQKPGQAPRLLIYKVSNRFPGVPDRFSGSGSGTDFTLKISRVEAEDVGVYYCAQGTSVPFTFGQGTKLEIK", "fold change of affinity": 1.9},
      {"binder": "H183/L072 VH G52cT (antibody, name in Kabat numbering, V domains shown) VH: QVQLVESGGGLVQPGRSLRLSCAASGFTFSNAWMHWVRQAPGKGLEWVAQIKDKTNAYAAYYAPSVKGRFTISRDDSKNSIYLQMNSLKTEDTAVYYCHYVHYASASTVLPAFGVDAWGQGTTVTVSS VL: DIVMTQSPLSLPVTPGEPASISCQASQELVHMNRNTYLHWYQQKPGQAPRLLIYKVSNRFPGVPDRFSGSGSGTDFTLKISRVEAEDVGVYYCAQGTSVPFTFGQGTKLEIK", "fold change of affinity": 0.9},
      {"binder": "H183/L072 VH G65P (antibody, name in Kabat numbering, V domains shown) VH: QVQLVESGGGLVQPGRSLRLSCAASGFTFSNAWMHWVRQAPGKGLEWVAQIKDKGNAYAAYYAPSVKPRFTISRDDSKNSIYLQMNSLKTEDTAVYYCHYVHYASASTVLPAFGVDAWGQGTTVTVSS VL: DIVMTQSPLSLPVTPGEPASISCQASQELVHMNRNTYLHWYQQKPGQAPRLLIYKVSNRFPGVPDRFSGSGSGTDFTLKISRVEAEDVGVYYCAQGTSVPFTFGQGTKLEIK", "fold change of affinity": 0.9},
      {"binder": "H183/L072 VH G52cN (antibody, name in Kabat numbering, V domains shown) VH: QVQLVESGGGLVQPGRSLRLSCAASGFTFSNAWMHWVRQAPGKGLEWVAQIKDKNNAYAAYYAPSVKGRFTISRDDSKNSIYLQMNSLKTEDTAVYYCHYVHYASASTVLPAFGVDAWGQGTTVTVSS VL: DIVMTQSPLSLPVTPGEPASISCQASQELVHMNRNTYLHWYQQKPGQAPRLLIYKVSNRFPGVPDRFSGSGSGTDFTLKISRVEAEDVGVYYCAQGTSVPFTFGQGTKLEIK", "fold change of affinity": 1.2},
      {"binder": "H183/L072 VH G52cY (antibody, name in Kabat numbering, V domains shown) VH: QVQLVESGGGLVQPGRSLRLSCAASGFTFSNAWMHWVRQAPGKGLEWVAQIKDKYNAYAAYYAPSVKGRFTISRDDSKNSIYLQMNSLKTEDTAVYYCHYVHYASASTVLPAFGVDAWGQGTTVTVSS VL: DIVMTQSPLSLPVTPGEPASISCQASQELVHMNRNTYLHWYQQKPGQAPRLLIYKVSNRFPGVPDRFSGSGSGTDFTLKISRVEAEDVGVYYCAQGTSVPFTFGQGTKLEIK", "fold change of affinity": 1.5},
      {"binder": "H183/L072 VH G52cS (antibody, name in Kabat numbering, V domains shown) VH: QVQLVESGGGLVQPGRSLRLSCAASGFTFSNAWMHWVRQAPGKGLEWVAQIKDKSNAYAAYYAPSVKGRFTISRDDSKNSIYLQMNSLKTEDTAVYYCHYVHYASASTVLPAFGVDAWGQGTTVTVSS VL: DIVMTQSPLSLPVTPGEPASISCQASQELVHMNRNTYLHWYQQKPGQAPRLLIYKVSNRFPGVPDRFSGSGSGTDFTLKISRVEAEDVGVYYCAQGTSVPFTFGQGTKLEIK", "fold change of affinity": 1},
      {"binder": "H183/L072 VH G65L (antibody, name in Kabat numbering, V domains shown) VH: QVQLVESGGGLVQPGRSLRLSCAASGFTFSNAWMHWVRQAPGKGLEWVAQIKDKGNAYAAYYAPSVKLRFTISRDDSKNSIYLQMNSLKTEDTAVYYCHYVHYASASTVLPAFGVDAWGQGTTVTVSS VL: DIVMTQSPLSLPVTPGEPASISCQASQELVHMNRNTYLHWYQQKPGQAPRLLIYKVSNRFPGVPDRFSGSGSGTDFTLKISRVEAEDVGVYYCAQGTSVPFTFGQGTKLEIK", "fold change of affinity": 0.9},
      {"binder": "H183/L072 VH G52cP (antibody, name in Kabat numbering, V domains shown) VH: QVQLVESGGGLVQPGRSLRLSCAASGFTFSNAWMHWVRQAPGKGLEWVAQIKDKPNAYAAYYAPSVKGRFTISRDDSKNSIYLQMNSLKTEDTAVYYCHYVHYASASTVLPAFGVDAWGQGTTVTVSS VL: DIVMTQSPLSLPVTPGEPASISCQASQELVHMNRNTYLHWYQQKPGQAPRLLIYKVSNRFPGVPDRFSGSGSGTDFTLKISRVEAEDVGVYYCAQGTSVPFTFGQGTKLEIK", "fold change of affinity": 1.3},
      {"binder": "H183/L072 VH G52cK (antibody, name in Kabat numbering, V domains shown) VH: QVQLVESGGGLVQPGRSLRLSCAASGFTFSNAWMHWVRQAPGKGLEWVAQIKDKKNAYAAYYAPSVKGRFTISRDDSKNSIYLQMNSLKTEDTAVYYCHYVHYASASTVLPAFGVDAWGQGTTVTVSS VL: DIVMTQSPLSLPVTPGEPASISCQASQELVHMNRNTYLHWYQQKPGQAPRLLIYKVSNRFPGVPDRFSGSGSGTDFTLKISRVEAEDVGVYYCAQGTSVPFTFGQGTKLEIK", "fold change of affinity": 1.6},
      {"binder": "H183/L072 VH G52cL (antibody, name in Kabat numbering, V domains shown) VH: QVQLVESGGGLVQPGRSLRLSCAASGFTFSNAWMHWVRQAPGKGLEWVAQIKDKLNAYAAYYAPSVKGRFTISRDDSKNSIYLQMNSLKTEDTAVYYCHYVHYASASTVLPAFGVDAWGQGTTVTVSS VL: DIVMTQSPLSLPVTPGEPASISCQASQELVHMNRNTYLHWYQQKPGQAPRLLIYKVSNRFPGVPDRFSGSGSGTDFTLKISRVEAEDVGVYYCAQGTSVPFTFGQGTKLEIK", "fold change of affinity": 1.5}
    ]}
  ]
}
